According to patent US20230288399A1 (FNCT BIOTECH, published 2023):

What was measured:
SRC [1] = target: T1, SRC (UniProt P12931 2-536); experiment: co-immunoprecipitation in SW-480 and HCT-116 colorectal cancer cells
T1 construct: Endogenous protein in colorectal cancer cell lysates or cells; also called p-SRC (phosphorylated form)
Source text: As a result of performing immunoprecipitation to confirm the expression correlation between ICAM-1 and SRC in SW-480 and HCT-116 colorectal cancer cells, it was confirmed that ICAM-1 binds to SRC endogenously, as shown in FIG. 3D.

SRC [2] = target: T1, SRC; experiment: immunoprecipitation with ICAM-1 Tyr512 mutants
Description: Furthermore, in order to confirm that ICAM-1 binds to SRC by a specific residue, an immunoprecipitation reaction was performed using a mutant with phosphomimetics form that inhibits (Y512A) or activates (Y512D) the Tyr512 phosphorylation residue of ICAM-1.

binding result (SRC [1]) | binding result (SRC [2]) | Binder
binds | – | intracellular adhesion molecule 1 (ICAM-1) (receptor, The assay used the endogenous protein of SW-480 and HCT-116 cells) QTSVSPSKVILPRGGSVLVTCSTSCDQPKLLGIETPLPKKELLLPGNNRKVYELSNVQEDSQPMCYSNCPDGQSTAKTFLTVYWTPERVELAPLPSWQPVGKNLTLRCQVEGGAPRANLTVVLLRGEKELKREPAVGEPAEVTTTVLVRRDHHGANFSCRTELDLRPQGLELFENTSAPYQLQTFVLPATPPQLVSPRVLEVDTQGTVVCSLDGLFPVSEAQVHLALGDQRLNPTVTYGNDSFSAKASVSVTAEDEGTQRLTCAVILGNQSQETLQTVTIYSFPAPNVILTKPEVSEGTEVTVKCEAHPRAKVTLNGVPAQPLGPRAQLLLKATPEDNGRSFSCSATLEVAGQLIHKNQTRELRVLYGPRLDERDCPGNWTWPENSQQTPMCQAWGNPLPELKCLKDGTFPLPIGESVTVTRDLEGTYLCRARSTQGEVTRKVTVNVLSPRYEIVIITVVAAAVIMGTAGLSTYLYNRQRKIKKYRLQQAQKGTPMKPNTQATPP
– | binds | ICAM-1 Y512D mutant (receptor) QTSVSPSKVILPRGGSVLVTCSTSCDQPKLLGIETPLPKKELLLPGNNRKVYELSNVQEDSQPMCYSNCPDGQSTAKTFLTVYWTPERVELAPLPSWQPVGKNLTLRCQVEGGAPRANLTVVLLRGEKELKREPAVGEPAEVTTTVLVRRDHHGANFSCRTELDLRPQGLELFENTSAPYQLQTFVLPATPPQLVSPRVLEVDTQGTVVCSLDGLFPVSEAQVHLALGDQRLNPTVTYGNDSFSAKASVSVTAEDEGTQRLTCAVILGNQSQETLQTVTIYSFPAPNVILTKPEVSEGTEVTVKCEAHPRAKVTLNGVPAQPLGPRAQLLLKATPEDNGRSFSCSATLEVAGQLIHKNQTRELRVLYGPRLDERDCPGNWTWPENSQQTPMCQAWGNPLPELKCLKDGTFPLPIGESVTVTRDLEGTYLCRARSTQGEVTRKVTVNVLSPRYEIVIITVVAAAVIMGTAGLSTYLYNRQRKIKKDRLQQAQKGTPMKPNTQATPP
